From patent publication US6846910B2, “Isolated proteins containing portions of FAPα and other proteins” (Ludwig Institute for Cancer Research, priority 1994, dated 2005) come the findings set out here.

A value given as a limit tells only on which side of the number the result lay.

One assay addresses T1, 170 kD FAPα dimer (Homo sapiens, UniProt Q12884, A207P/T229K/T354R).
T1 construct: expressed in transfected cells; host or cells: 293 cells stably transfected with pFAP.38 (293-FAP)
T1 sequence (Q12884 1-760 A207P/T229K/T354R): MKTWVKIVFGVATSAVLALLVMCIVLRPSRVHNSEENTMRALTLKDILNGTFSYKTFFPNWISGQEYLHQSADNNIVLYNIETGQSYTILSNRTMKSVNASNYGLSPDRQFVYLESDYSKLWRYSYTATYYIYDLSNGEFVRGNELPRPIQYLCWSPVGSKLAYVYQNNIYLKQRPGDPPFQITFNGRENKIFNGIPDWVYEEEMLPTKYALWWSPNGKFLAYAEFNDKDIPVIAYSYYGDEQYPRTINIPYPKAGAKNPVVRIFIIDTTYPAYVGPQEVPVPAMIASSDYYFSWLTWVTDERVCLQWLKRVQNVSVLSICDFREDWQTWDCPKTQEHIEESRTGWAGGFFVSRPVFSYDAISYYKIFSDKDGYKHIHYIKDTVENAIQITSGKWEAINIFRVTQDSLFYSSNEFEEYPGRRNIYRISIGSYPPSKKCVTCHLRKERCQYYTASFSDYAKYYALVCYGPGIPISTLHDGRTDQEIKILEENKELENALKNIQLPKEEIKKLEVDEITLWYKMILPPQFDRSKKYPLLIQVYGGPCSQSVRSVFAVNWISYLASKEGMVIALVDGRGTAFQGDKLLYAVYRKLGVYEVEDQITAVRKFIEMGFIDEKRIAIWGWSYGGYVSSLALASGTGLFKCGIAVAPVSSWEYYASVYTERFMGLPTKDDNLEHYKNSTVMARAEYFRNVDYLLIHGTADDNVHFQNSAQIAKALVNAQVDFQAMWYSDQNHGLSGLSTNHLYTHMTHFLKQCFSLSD
In words: Gelatin zymography with added treatments. Format: biochemical.

Assay [1] addresses fibroblast activation protein alpha (human) (UniProt Q12884). In words: MHA rosetting assay on COS-1 cells transfected with pFAP.38.
The target is the same in assay [2]. Nature of the assay: MHA rosetting assay on SW872 liposarcoma cells.
The subject of another assay is casein. In words: Casein zymography of 293-FAP cell extracts. Format: biochemical. To be noted: gel with 0.1% casein. As for the experimental part:
(§1) Extracts of 293-FAP cells were prepared, using an extraction buffer (0.15M NaCl, 0.05M Tris-HCl, pH 7.4, 10 mM MgCl2, 1 percent Triton X-114), were cleared by centrifugation (4,000×g, 10 minutes at […]), and phase partitioned at 37° C. for 10-20 minutes. This was followed by further centrifugation (4000×g, 20 minutes at 20-25° C.) Detergent phases were diluted with buffer (0.15M NaCl, 0.05M Tris-HCl pH 7.4, 5 mM CaCl2, 5 mM MgCl2, 0.75% Empigen BB), and separated on concanavalin A-Sepharose following Rettig et al., supra. Any concanavalin A bound fractions were eluted with 0.25M methyl-α-D-mannopyranoside in elution buffer 0.15M NaCl,0.05M Tris-HCl, pH 7.4, 5 mM CaCl2, 5 mM MgCl2, 0.1% Triton X-100), mixed with zymography sample buffer (0.25M Tris-HCl, pH 6.8, 8% SDS, 40% glycerol, 0.01% bromophenol blue), at a 3:1 ratio, and used for further analysis.
Aliquots of sample were loaded onto polyacrylamide gels containing 0.1% of either of gelatin or casein. Electrophoresis was then carried out in a Biorad Mini-Protein II system,.at 20 mA constant current for 1.5-2 hours, until the bromophenol blue dye fronts of samples had reached the lower end of the gel. The gel was removed and incubated for one hour at 20-25° C. in a 2.5% aqueous solution of Triton X-100 on a rotary shaker. […]

Assay [3] is described as follows: Membrane overlay assay for proteolytic activity. To be noted: Ala-Pro-, Gly-Pro-, Lys-Pro-7-amino-4-trifluoromethyl coumarin. Format: biochemical. As for the experimental part: Proteolytic activity for defined amino acid sequence motifs were tested, using a well known membrane overlay assay. See Smith et al, Histochem. J. 24(9): 637-647 (1992), incorporated by reference. Substrates were Ala-Pro-7-amino-4-trifluoromethyl coumarin, Gly-Pro-7-amino-4-trifluoromethyl coumarin, and Lys-Pro-7-amino-4-trifluromethyl coumarin.

A further assay relates to gelatin. Nature of the assay: Gelatin zymography of 293-FAP cell extracts. Format: biochemical. Particulars: unboiled samples, approximately 170 kilodalton species. On the procedure: as §1
Aliquots of sample were loaded onto polyacrylamide gels containing 0.1% of either of gelatin or casein. Electrophoresis was then carried out in a Biorad Mini-Protein II system,.at 20 mA constant current for 1.5-2 hours, until the bromophenol blue dye fronts of samples had reached the lower end of the gel. […]
Gelatinase activity was evaluated in accordance with Kleiner et al., Anal. Biochem. 218: 325-329 (1994), incorporated by reference in its entirety. […]

Procedure for 170 kD FAPα dimer: Extracts of 293-FAP cells were prepared, using an extraction buffer (0.15M NaCl, 0.05M Tris-HCl, pH 7.4, 10 mM MgCl2, 1 percent Triton X-114), were cleared by centrifugation (4,000×g, 10 minutes at 40° C.), and phase partitioned at 37° C. for 10-20 minutes. This was followed by further centrifugation (4000×g, 20 minutes at 20-25° C.) Detergent phases were diluted with buffer (0.15M NaCl, 0.05M Tris-HCl pH 7.4, 5 mM CaCl2, 5 mM MgCl2, 0.75% Empigen BB), and separated on concanavalin A-Sepharose following Rettig et al., supra. Any concanavalin A bound fractions were eluted with 0.25M methyl-α-D-mannopyranoside in elution buffer 0.15M NaCl,0.05M Tris-HCl, pH 7.4, 5 mM CaCl2, 5 mM MgCl2, 0.1% Triton X-100), mixed with zymography sample buffer (0.25M Tris-HCl, pH 6.8, 8% SDS, 40% glycerol, 0.01% bromophenol blue), at a 3:1 ratio, and used for further analysis.
Aliquots of sample were loaded onto polyacrylamide gels containing 0.1% of either of gelatin or casein. Electrophoresis was then carried out in a Biorad Mini-Protein II system,.at 20 mA constant current for 1.5-2 hours, until the bromophenol blue dye fronts of samples had reached the lower end of the gel. The gel was removed and incubated for one hour at 20-25° C. in a 2.5% aqueous solution of Triton X-100 on a rotary shaker. The Triton X-100 solution was decanted, and replaced with enzyme buffer (0.05M Tris-HCl, pH 7.5, 0.2M NaCl, 5 mM CaCl2, 5 mM MgCl2, 0.02% Brij 35). The gel was then incubated at 37° C. or 41° C., followed by staining or destaining at room temperature. Gels were stained with 0.5% of Coomassie Brilliant Blue G-250 in an aqueous solution of 30% methanol and 10% acetic acid for 15, 30, and 60 minutes, respectively. Subsequently, gels were incubated for 15 minutes in an aqueous solution of 30% CH3OH and 5% glycerol, followed by drying between sheets of cellophane.

As to `OCCS` [2-mercaptoethanol], the “effect on gelatin degrading enzymatic activity” value (from here on “effect”) at 170 kD FAPα dimer (5% added to extracts prior to SDS-PAGE) was “None of these treatments abolished the enzymatic activity”.
On to `O=C(O)CN(CCN(CC(=O)O)CC(=O)O)CC(=O)O` [ethylenediamine N,N,N′,N′-tetraacetic acid], for which the “effect” value at 170 kD FAPα dimer (10 mM added to incubation buffer for gelatin zymography) is recorded as “None of these treatments abolished the enzymatic activity”.
Consider `NC(=O)CI` [iodoacetamide], for which the “effect” value at 170 kD FAPα dimer (5 um added to extracts prior to SDS-PAGE) is “None of these treatments abolished the enzymatic activity”.
As to monoclonal antibody F19, the values for the Cell surface antigen expression (% positive cells) in assay [1] and in assay [2] were 40% and above 95%, respectively.

B1: FAPα: recombinant fibroblast activation protein alpha from 293-FAP cells, approximately 170 kilodalton dimeric species by SDS-PAGE of unboiled samples (protein)
chain: T1 sequence (Q12884 1-760 A207P/T229K/T354R)
Take B1: in the assay on casein, the “proteolytic activity with casein as substrate” value was “not observed”. In addition, the “cleavage of dipeptide substrates” value in assay [3] is “able to cleave all of the Ala-Pro, Gly-Pro, and Lys-Pro dipeptides tested”. The gelatin degrading activity entry in the assay with gelatin was “observed to have gelatin degrading activity”.
